Experimental findings from paper PMC9547003 are described below.

The target of this assay is bacteriophage T7 endonuclease I (C113S, S29C; called wild type in the paper), Cy3-labelled (bacteriophage T7) (UniProt P00641). The experiment in a line: two-step photobleaching of single fluorescent molecules (confocal microscopy with optical tweezers); Cy3-labelled endonuclease I (one dye on each monomer) diffusing on force-stretched dsDNA held between optically trapped beads; 1 nM protein, 25 mM Tris-HCl pH 7.5, 50 mM NaCl, 0.1% BSA, 1 mM CaCl2 or MgCl2.

The stoichiometry N is a count of units in the complex or per binding partner. Take “bacteriophage T7 endonuclease I (C113S, S29C; called wild type in the paper), Cy3-labelled (from UniProt P00641 1-149) (enzyme)”: the stoichiometry N amounted to 2.
